Test results published in publication PMC3491057, “Proliferating Cell Nuclear Antigen (PCNA) Interactions in Solution Studied by NMR” (PLoS ONE, 2012).
No end group written: not given here.

Tests used:
Details in all cases: both partners purified
[1] = target: T1, Proliferating Cell Nuclear Antigen (PCNA), human (human, homotrimeric ring; GlySerHis tag remnant before Met1 left out; 2H/15N(/13C) labelled for NMR, natural abundance for ITC); assay: ITC; PCNA (11.2–13.4 µM protomers) in the cell titrated with peptide (117 µM p21^20, 363 p21^12); PBS pH 7.0, 30°C; single set of identical sites
T1 sequence (chain, as listed by the source): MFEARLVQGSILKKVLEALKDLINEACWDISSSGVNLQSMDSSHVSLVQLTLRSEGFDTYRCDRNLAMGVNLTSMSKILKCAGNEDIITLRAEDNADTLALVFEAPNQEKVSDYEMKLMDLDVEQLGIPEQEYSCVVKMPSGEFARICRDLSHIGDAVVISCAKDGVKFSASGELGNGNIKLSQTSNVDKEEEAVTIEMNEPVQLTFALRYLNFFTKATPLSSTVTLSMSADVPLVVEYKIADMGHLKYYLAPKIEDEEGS

[2] = target: T1, Proliferating Cell Nuclear Antigen …; assay: ITC; PCNA (11.2–13.4 µM protomers) in the cell titrated with peptide (117 µM p21^20, 363 p21^12); PBS pH 7.0, 35°C; single set of identical sites
[3] = target: Proliferating Cell Nuclear Antigen (PCNA), human (human); assay: NMR titration; 280 µM U-2H,15N-PCNA titrated with a 7.5 mM stock of ING1^22 up to a 7.8-fold molar excess; CSP of H44 fitted to one set of sites; PBS pH 7.0, 35°C
Sequence of Proliferating Cell Nuclear Antigen (PCNA), human (human) (chain, as listed by the source): as above

Row | Binder | Kd [1] | stoichiometry N [1] | Kd [2] | KD with CSPmax set equal to the CSP of PCNA bound to p21^20 [3] | Kd [3]
1 | KRRQTSMTDFYH (source: lyophilized peptide) [p21 fragment 141-152 (p21^12), shorter PIP-box peptide of the Cyclin-dependent kinase inhibitor 1] | 0.00064 mM | 1 p21 ligand per PCNA protomer | 0.0011 mM | – | –
2 | PANGEQLHLVNYVEDTLDSIES (not fully specified) [ING1 PIP-box fragment 4-25 (ING1^22)] | – | – | – | 12.5 ± 0.5 mM | 2 ± 0.7 mM
